Laboratory results: patent publication US20210063414A1, “METHODS FOR PREVENTING AND/OR TREATING BONE LOSS CONDITIONS BY MODULATING IRISIN” (Dana-Farber Cancer Institute, Inc., priority 2018, published 2021)

Tests used:
Assay in all cases: Crosslinking/co-immunoprecipitation/mass spectrometry (TMT quantitative proteomics) to identify irisin receptors
Assay type in all cases: binding
[1] = target: T1, MLO-Y4 cell surface proteins (Mus musculus, UniProt Q8R1J9); details: co-precipitated protein Tor2a (TOR2A_MOUSE)
T1 construct: endogenous in cells; host or cells: MLO-Y4
T1 sequence (Q8R1J9 27-321): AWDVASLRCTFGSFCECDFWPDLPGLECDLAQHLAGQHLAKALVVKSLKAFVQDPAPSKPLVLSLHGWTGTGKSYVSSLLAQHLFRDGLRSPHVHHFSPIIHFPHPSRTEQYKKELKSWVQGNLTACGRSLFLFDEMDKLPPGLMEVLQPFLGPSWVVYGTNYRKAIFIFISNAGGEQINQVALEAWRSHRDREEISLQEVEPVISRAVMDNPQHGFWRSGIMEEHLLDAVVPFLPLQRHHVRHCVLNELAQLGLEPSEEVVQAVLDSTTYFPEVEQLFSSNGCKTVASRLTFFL
Protocol: (§1) MLO-Y4 cells were seeded on 30×150 mm type-I collagen coated dishes as described in cell culture experiment. At 60% cell density, medium was switched to FreeStyle™ 293 Expression medium. After 4 hours incubation, the cells were chilled on ice for 10 minutes, followed by treatment of 10 nM his-tag irisin or his-tag adipsin for 20 minutes. The cells were then incubated with 1.5 mM DTSSP for 30 minutes on ice to do cross-linking, after washing with 15 ml cold PBS twice. The cross-linking was quenched by addition of a final concentration of 20 mM Tris-pH 7.5. The cells were then harvested and homogenized in 1 ml RIPA buffer containing proteaseinhibitor cocktailand phosphatase-inhibitor cocktail. Whole-cell lysates were homogenized by 10 times passages through a 22G needle fitted to a 3 ml syringe. Homogenized samples were rotated gently in cold room for 20 minutes followed by 15,000×g centrifugation for 10 minutes. After addition of a final concentration of 10 mM imidazole, supernatants were incubated with 100 μl Ni-NTA agarose for 1 hour. After centrifugation at 500×g for 1 minute, the supernatants were aspirated and 1 ml cold RIPA buffer containing 10 mM imidazole were added to the agarose. After 10 minutes rotation in cold room, the supernatants were aspirated and 1 ml cold RIPA buffer containing 30 mM imidazole were added to the agarose. After repeating the washing 3 times, 0.8 ml RIPA buffer containing 250 mM imidazole was added and the agarose was gently rotated in a cold room for 20 minutes. After centrifugation at 1000×g for 2 minutes, the supernatants were transferred to 1.5 ml tube and incubated with 100 μl 0.2% sodium deoxycholate and 100 μl 10% trichloroacetic acid in ice for 1 hour. After centrifugation at 12,000×g for 10 minutes at 4° C., the supernatants were removed and 1 ml cold acetone was added to the pellets followed by vortexing for 10 seconds. After one more washing with cold acetone, the pellets were dried at 37° C., and 39 μl PBS and 13 μl 4×NuPAGE LDS were added to the pellets with a final concentration of 5 mM DTT. Solubilized proteins were incubated at 65° C. for 20 minutes followed by incubation with a final concentration of 14 mM iodoacetamide for 45 minutes in the dark. 38 μl samples were loaded to 4-12% gradient SDS-PAGE for separation followed by Coomassie Blue staining. The gels were submitted to quantitative proteomics.
(§2) For in-gel digestions, gels were stained with Coomassie Blue and were excised into 8 equal segments for control and irisin lanes. Gel pieces were destained and dehydrated with 100% acetonitrile, vacuumed dried, and digested in 25 mM HEPES (pH 8.5) with 500 ng sequencing grade trypsin (Promega) and incubated for an overnight at 37° C. (Shevchenko et al. (1996) Anal. Chem. 68:850-858). Digests were treated with 1% formic acid and purified using C18 Stage-Tips as previously described (Rappsilber et al. (2007) Nat. Protoc. 2:1896-1906). Peptides were eluted with 70% acetonitrile and 1% formic acid, then dried using a speedvac. Isobaric labeling of digested peptides was accomplished using 6-plex tandem mass tag (TMT) reagents (Thermo Fisher Scientific, Rockford, Ill.). Reagents, 5.0 mg, were dissolved in 252 μl acetonitrile (ACN) and 5 μl of the solution was added to the digested peptides dissolved in 25 μl of 200 mM HEPES, pH 8.5. After 1 hour at room temperature, the reaction was quenched by adding 1 μl of 5% hydroxylamine. Labeled peptides were combined and acidified prior to C18 Stage-Tips desalting.
(§3) All LC-MS/MS experiments were performed on an Orbitrap Fusion™ Lumos mass spectrometer (Thermo Fisher Scientific, San Jose, Calif., USA) coupled with a Proxeon EASY-nLC™ 1200 LC pump (Thermo Fisher Scientific). Peptides were separated on a 100 μm inner diameter microcapillary column packed with 35 cm of Accucore™ C18 resin (1.8 μm, 100 Å, Thermo Fisher Scientific). […]

[2] = target: T2, MLO-Y4 cell surface proteins (Mus musculus, UniProt P08249); details: co-precipitated protein Mdh2 (MDHM_MOUSE)
T2 construct: endogenous in cells; host or cells: MLO-Y4
T2 sequence (P08249 25-338): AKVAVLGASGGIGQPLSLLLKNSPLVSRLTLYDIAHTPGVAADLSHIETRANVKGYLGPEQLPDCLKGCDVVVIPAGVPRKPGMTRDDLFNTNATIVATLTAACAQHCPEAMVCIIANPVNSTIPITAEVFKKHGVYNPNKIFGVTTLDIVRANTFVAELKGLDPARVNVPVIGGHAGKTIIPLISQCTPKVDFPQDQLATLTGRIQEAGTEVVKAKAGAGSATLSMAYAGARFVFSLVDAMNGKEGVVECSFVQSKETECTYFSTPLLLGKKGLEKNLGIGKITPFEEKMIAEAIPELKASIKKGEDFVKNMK
Protocol: as §1, §2, §3

[3] = target: T3, MLO-Y4 cell surface proteins (Mus musculus, UniProt P48997); details: co-precipitated protein Ivl (INVO_MOUSE)
T3 construct: endogenous in cells; host or cells: MLO-Y4
T3 sequence (P48997 1-467): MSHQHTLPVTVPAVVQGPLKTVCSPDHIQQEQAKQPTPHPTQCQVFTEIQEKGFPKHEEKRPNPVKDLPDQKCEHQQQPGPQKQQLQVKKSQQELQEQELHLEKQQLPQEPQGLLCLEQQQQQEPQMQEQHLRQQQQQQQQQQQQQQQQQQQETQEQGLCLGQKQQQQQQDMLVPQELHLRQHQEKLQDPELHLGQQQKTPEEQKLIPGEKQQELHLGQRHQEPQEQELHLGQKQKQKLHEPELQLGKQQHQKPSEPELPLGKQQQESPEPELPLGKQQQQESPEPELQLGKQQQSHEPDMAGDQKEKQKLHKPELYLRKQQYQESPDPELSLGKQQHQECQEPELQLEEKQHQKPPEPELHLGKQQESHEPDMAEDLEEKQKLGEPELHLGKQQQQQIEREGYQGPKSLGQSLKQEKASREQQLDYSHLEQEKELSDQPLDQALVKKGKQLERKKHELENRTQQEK
Protocol: as §1, §2, §3

B1: irisin: secreted cleaved form of FNDC5; recombinant human/mouse irisin with C-terminal his tag produced in HEK293 cells (protein)
chain: DSPSAPVNVTVRHLKANSAVVSWDVLEDEVVIGFAISQQKKDVRMLRFIQEVNTTTRSCALWDLEEDTEYIVHVQAISIQGQSPASEPVLFKTPREAEKMASKNKDEVTMKE
modifications: left off: small tags and cut ends
notes: secreted cleaved form of FNDC5; recombinant human/mouse irisin with C-terminal his tag produced in HEK293 cells
With B1 the TMT signal-to-noise ratio [1] was 338.383, the “irisin/adipsin TMT signal-to-noise ratio” value [1] was 0.486 and the TMT signal-to-noise ratio [2] was 858.89. The “irisin/adipsin TMT signal-to-noise ratio” value [2] was 0.336, the TMT signal-to-noise ratio [3] was 13.3857 and the “irisin/adipsin TMT signal-to-noise ratio” value [3] was 0.060.
